Data set [1] addresses oxidized bovine insulin B chain, P01317.
Data set [2] has as its target T1, peptide derived from the processing site of presenilin 1 (SVNM/AEGD).
T1 chain: SVNMAEGD

Data set [3] addresses T2, synthetic peptide Nch (VGSGVLLSRK).
T2 chain: VGSGVLLSRK

Data set [4] deals with T3, synthetic peptide PS1-gamma (LVNMAEGD).
T3 chain: LVNMAEGD

Data set [5] deals with T4, synthetic peptide derived from the APP beta-secretase site (SEVKM/DAEFR).
T4 chain: SEVKMDAEFR

The target of data set [6] is T5, synthetic peptide derived from the APP beta-secretase site containing the Swedish mutation (SEVNL/DAEFR).
T5 chain: SEVNLDAEFR

oxidized bovine insulin B chain, P01317, sequence (P01317 25-54): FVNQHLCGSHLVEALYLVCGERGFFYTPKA

B1: M2pd (modified M2 containing amino acids from Ala-8p to Ala326) (protein)
chain: TQHGIRLPLRSGLGGAPLGLRLPRETDEEPEEPGRRGSFVEMVDNLRGKSGQGYYVEMTVGSPPQTLNILVDTGSSNFAVGAAPHPFLHRYYQRQLSSTYRDLRKGVYVPYTQGKWEGELGTDLVSIPHGPNVTVRANIAAITESDKFFINGSNWEGILGLAYAEIARPDDSLEPFFDSLVKQTHVPNLFSLQLCGAGFPLNQSEVLASVGGSMIIGGIDHSLYTGSLWYTPIRREWYYEVIIVRVEINGQDLKMDCKEYNYDKSIVDSGTTNLRLPKKVFEAAVKSIKAASSTEKFPDGFWLGEQLVCWQAGTTPWNIFPVISLYLMGEVTNQSFRITILPQQYLRPVEDVATSQDDCYKFAISQSSTGTVMGAVIMEGFYVVFDRARKRIGFAVSACHVHDEFRTAAVEGPFVTLDMEDCGYNIPQTDESTLMTIAYVMAAICALFMLPLCLMVCQWRCLRCLRQQHDDFADDISLLK
For B1, the cleavage of proteins entry with Native proteins is listed as “Native proteins were not cleaved by M2pd”. Further, the hydrolytic sites in data set [1] was 2 sites; in data set [3], 3 sites; in data set [4], “A single cleavage site was observed in synthetic peptide PS1-gamma”. Also, the Km entry in data set [2] is “Km, 15.2 mM”; in data set [6], “Km, 1 mM”. For the same protein, the kcat result is “kcat, 0.67 s^-1” in data set [2] and “kcat, 2.45 s^-1” in data set [6]. Besides, the kcat/Km result was “kcat/Km, 43.8 s^-1M^-1” in data set [2]; “kcat/Km, 39.9 s^-1M^-1” in data set [5]; “kcat/Km, 2450 s^-1M^-” in data set [6]. The “fold increase of kcat/Km over native APP” value in data set [6] is recorded as 60-fold increase of kcat/Km over that for native APP.

The values are drawn from patent US20040220079.
